According to US20200264182A1, “METHOD FOR DETECTING PROSTATE CANCER” (J-OIL MILLS, INC., priority 2017, published 2020):

Assay: FAC binding constant
Conditions: at 25° C.
Experimental: Details of the FAC method are described in Patent Document 2 filed by some of the present applicants, for example.
Binding constants (at 25° C.) of PhoSL, SRL, NSL and LSL belonging to the fucose α1→6 specific lectin for various sugar chains are shown in Tables 2 to 5.

[1] = sugar chain having fucose other than α1→6 fucose

B1: AAL: Aleuria aurantia lectin, has affinity for fucose α1→6 but is not specific; from J-OIL MILLS, Inc. (protein)
chain: PTEFLYTSKIAAISWAATGGRQQRVYFQDLNGKIREAQRGGDNPWTGGSSQNVIGEAKLFSPLAAVTWKSAQGIQIRVYCVNKDNILSEFVYDGSKWITGQLGSVGVKVGSNSKLAALQWGGSESAPPNIRVYYQKSNGSGSSIHEYVWSGKWTAGASFGSTVPGTGIGATAIGPGRLRIYYQATDNKIREHCWDSNSWYVGGFSASASAGVSIAAISWGSTPNIRVYWQKGREELYEAAYGGSWNTPGQIKDASRPTPSLPDTFIAANSSGNIDISVFFQASGVSLQQWQWISGKGWSIGAVVPTGTPAGW
90000 M⁻¹: Binding constant for sugar chain No. 910 [1]
54000 M⁻¹: Binding constant for sugar chain No. 202 (sugar chain having α1→6 fucose)
35000 M⁻¹: Binding constant for sugar chain No. 723 [1]
<1000 M⁻¹: Binding constant for sugar chain No. 728 (Table 3: sugar chain having fucose other than α1→6 fucose) | Binding constant for sugar chain No. 419 [1] | Binding constant for sugar chain No. 420 [1] | Binding constant for sugar chain No. 719 [1] | Binding constant for sugar chain No. 720 [1] | Binding constant for sugar chain No. 721 [1] | Binding constant for sugar chain No. 722 [1] | Binding constant for sugar chain No. 726 [1] | Binding constant for sugar chain No. 729 [1] | Binding constant for sugar chain No. 730 [1] | Binding constant for sugar chain No. 731 [1] | Binding constant for sugar chain No. 739 [1] | Binding constant for sugar chain No. 931 [1] | Binding constant for sugar chain No. 932 [1] | Binding constant for sugar chain No. 001 (sugar chain having no fucose) | Binding constant for sugar chain No. 002 (sugar chain having no fucose) | Binding constant for sugar chain No. 003 (sugar chain having no fucose) | Binding constant for sugar chain No. 004 (sugar chain having no fucose) | Binding constant for sugar chain No. 005 (sugar chain having no fucose) | Binding constant for sugar chain No. 006 (sugar chain having no fucose) | Binding constant for sugar chain No. 007 (sugar chain having no fucose) | Binding constant for sugar chain No. 008 (sugar chain having no fucose) | Binding constant for sugar chain No. 009 (sugar chain having no fucose) | Binding constant for sugar chain No. 010 (sugar chain having no fucose) | Binding constant for sugar chain No. 011 (sugar chain having no fucose) | Binding constant for sugar chain No. 012 (sugar chain having no fucose) | Binding constant for sugar chain No. 013 (sugar chain having no fucose) | Binding constant for sugar chain No. 014 (sugar chain having no fucose) | Binding constant for sugar chain No. 101 (sugar chain having no fucose) | Binding constant for sugar chain No. 103 (sugar chain having no fucose) | Binding constant for sugar chain No. 104 (sugar chain having no fucose) | Binding constant for sugar chain No. 105 (sugar chain having no fucose) | Binding constant for sugar chain No. 107 (sugar chain having no fucose) | Binding constant for sugar chain No. 108 (sugar chain having no fucose) | Binding constant for sugar chain No. 301 (sugar chain having no fucose) | Binding constant for sugar chain No. 304 (sugar chain having no fucose) | Binding constant for sugar chain No. 305 (sugar chain having no fucose) | Binding constant for sugar chain No. 307 (sugar chain having no fucose) | Binding constant for sugar chain No. 308 (sugar chain having no fucose) | Binding constant for sugar chain No. 313 (sugar chain having no fucose) | Binding constant for sugar chain No. 314 (sugar chain having no fucose) | Binding constant for sugar chain No. 323 (sugar chain having no fucose) | Binding constant for sugar chain No. 501 (sugar chain having no fucose) | Binding constant for sugar chain No. 502 (sugar chain having no fucose) | Binding constant for sugar chain No. 503 (sugar chain having no fucose) | Binding constant for sugar chain No. 504 (sugar chain having no fucose) | Binding constant for sugar chain No. 701 (sugar chain having no fucose) | Binding constant for sugar chain No. 702 (sugar chain having no fucose) | Binding constant for sugar chain No. 703 (sugar chain having no fucose) | Binding constant for sugar chain No. 704 (sugar chain having no fucose) | Binding constant for sugar chain No. 705 (sugar chain having no fucose) | Binding constant for sugar chain No. 706 (sugar chain having no fucose) | Binding constant for sugar chain No. 707 (sugar chain having no fucose) | Binding constant for sugar chain No. 708 (sugar chain having no fucose) | Binding constant for sugar chain No. 709 (sugar chain having no fucose) | Binding constant for sugar chain No. 710 (sugar chain having no fucose) | Binding constant for sugar chain No. 711 (sugar chain having no fucose) | Binding constant for sugar chain No. 712 (sugar chain having no fucose) | Binding constant for sugar chain No. 713 (sugar chain having no fucose) | Binding constant for sugar chain No. 715 (sugar chain having no fucose) | Binding constant for sugar chain No. 716 (sugar chain having no fucose) | Binding constant for sugar chain No. 717 (sugar chain having no fucose) | Binding constant for sugar chain No. 724 (sugar chain having no fucose) | Binding constant for sugar chain No. 725 (sugar chain having no fucose) | Binding constant for sugar chain No. 732 (sugar chain having no fucose) | Binding constant for sugar chain No. 733 (sugar chain having no fucose) | Binding constant for sugar chain No. 734 (sugar chain having no fucose) | Binding constant for sugar chain No. 735 (sugar chain having no fucose) | Binding constant for sugar chain No. 736 (sugar chain having no fucose) | Binding constant for sugar chain No. 737 (sugar chain having no fucose) | Binding constant for sugar chain No. 738 (sugar chain having no fucose) | Binding constant for sugar chain No. 901 (sugar chain having no fucose) | Binding constant for sugar chain No. 902 (sugar chain having no fucose) | Binding constant for sugar chain No. 903 (sugar chain having no fucose) | Binding constant for sugar chain No. 905 (sugar chain having no fucose) | Binding constant for sugar chain No. 906 (sugar chain having no fucose) | Binding constant for sugar chain No. 907 (sugar chain having no fucose) | Binding constant for sugar chain No. 418 (sugar chain having α1→6 fucose)
52000 M⁻¹: Binding constant for sugar chain No. 403 (sugar chain having α1→6 fucose) | Binding constant for sugar chain No. 602 (sugar chain having α1→6 fucose)
65000 M⁻¹: Binding constant for sugar chain No. 718 [1] | Binding constant for sugar chain No. 404 (sugar chain having α1→6 fucose)
66000 M⁻¹: Binding constant for sugar chain No. 203 (sugar chain having α1→6 fucose)
32000 M⁻¹: Binding constant for sugar chain No. 413 (sugar chain having α1→6 fucose)
45000 M⁻¹: Binding constant for sugar chain No. 407 (sugar chain having α1→6 fucose)
310000 M⁻¹: Binding constant for sugar chain No. 909 [1]
55000 M⁻¹: Binding constant for sugar chain No. 401 (sugar chain having α1→6 fucose)
38000 M⁻¹: Binding constant for sugar chain No. 410 (sugar chain having α1→6 fucose)
91000 M⁻¹: Binding constant for sugar chain No. 015 (sugar chain having α1→6 fucose)
210000 M⁻¹: Binding constant for sugar chain No. 933 [1]
130000 M⁻¹: Binding constant for sugar chain No. 727 [1]
51000 M⁻¹: Binding constant for sugar chain No. 201 (sugar chain having α1→6 fucose)
47000 M⁻¹: Binding constant for sugar chain No. 406 (sugar chain having α1→6 fucose)
61000 M⁻¹: Binding constant for sugar chain No. 601 (sugar chain having α1→6 fucose)
56000 M⁻¹: Binding constant for sugar chain No. 405 (sugar chain having α1→6 fucose)
11000 M⁻¹: Binding constant for sugar chain No. 402 (sugar chain having α1→6 fucose)
